In patent US20230201357, “D-DIMER-SPECIFIC APTAMERS AND METHODS OF USE IN DIAGNOSTICS, THERAPEUTIC AND THERANOSTIC PURPOSES” (APTAMER DIAGNOSTIC, INC., published 2023) one finds binding result and Kd data, which are given here for six molecules.

The Kd is the constant that tells how readily two partners part at equilibrium.

Data set [1] concerns the target T1, Fibrinogen (UniProt P02671-2;P02675;P02679-2 P02671-2:20-644,P02675:31-491,P02679-2:27-437). Description: ELONA; 25 nM aptamer, immobilized fibrinogen; low D-dimer plasma also negative. As to conditions: chain copies: 2; label: 3' biotin. The method, then: (§1) 25 nM of either 3′ Bioitnilated ADI1701, Truncation 1, Truncation 2, Truncation 3, Truncation 4, Truncation 5, scrambled sequence 1, scrambled sequence 2 and scrambled sequence 3 was incubated with D-Dimer protein immobilized on a 96 well ELISA plate. As a control, 3′ Biotin-ADI1701 was incubated with fibrinogen or two plasma samples from donors with low D-Dimer levels (<200 ng/ml) immobilized on the plate. Absorbance was measured after incubation with streptavidin horse radish peroxidase bound to the biotinylated aptamer in the presence of the substrate 3,3′,5,5′-Tetramethylbenzidine (TMB). […] Deleting three or five bases from the 5′ end of ADI1701 decreased the binding to D-dimer by 33%. […] The values shown are subtracted from the absorbance measured in the presence of albumin that was used as the blank.
(§2) Various truncations were made to the 3′ Biotinylated-ADI1701 aptamer from the 5′ and 3′-ends. Deleting as little as 3 bases from the 5′-end or 5 bases from the 3′-end affected the binding of ADI1701 to D-dimer (FIG. 7). Again, none of the scrambled sequences with Biotin label on either the 5′ or 3′-ends presented any binding to D-dimer.

Data set [2] concerns the target T2, D-dimer (cross-linked fibrin degradation product) (Homo sapiens, UniProt P02671;P02675;P02679 SEQ:1-87,SEQ:1-328,SEQ:1-324). Description: SPR; SPRi, biotinylated aptamer on streptavidin gold, 10 nM D-dimer in flow; ka 2.0e6, kd 0.0048 per s. The conditions noted are these: tags: none stated; about 180 kDa; chain copies: 2 of each chain (inferred); label: 3' biotin. On the procedure: Interaction between ADI1701 and D-dimer was analyzed by a SPR device, Openplex SPRi system from Horiba Scientific. Various amounts of ADI1701 (5 fmol, 50 fmmol and 500 fmol) were immobilized on a gold sensor chip, and D-dimer (10 nM) was injected to the flow cell, and ScrubberGen Ver. 2.0g software was used to subtract the references. […] Nonspecific binding of D-dimer to ADI1701scram was subtracted at the respective concentrations.
Further studies on the specificity and affinity of binding of ADI1701 to D-dimer were performed using Surface plasmon resonance (SPR). SPR has become an important optical bio-sensing technology in the areas of biochemistry, biology, and medical sciences because of its real-time, label-free, and noninvasive nature. Various amounts of biotinylated ADI1701 were immobilized on streptavidin coated gold surface and D-dimer to flow through. It is shown herein that ADI1701 binds directly to D-Dimer (FIG. 8).
(In general: In SPR one partner is held on a chip, and binding of the other changes the refractive index at the surface.)

Data set [3] concerns the target T1, Fibrinogen. Put plainly: EMSA; native PAGE, no band overlapping fibrinogen. As to conditions: chain copies: 2. Background: In EMSA bound probe runs differently from free probe, usually more slowly.
Data set [4] deals with Bovine serum albumin (Bos taurus, UniProt P02769 P02769:25-607). Put plainly: latex bead agglutination, no agglutination at highest BSA amount. The method, then: (§3) FIGS. 10A and 10B show photomicrographs of Latex-Aptamer Beads at Different Preparations and at Two Extreme Levels of D-Dimer Concentration. […] The well concentration of the proteins are (serial dilution from left to right, per 150 uL total well volume): 10 nM, 5 nM, 2.5 nM and 1.25 nM of D-Dimer; 10 nM, 5 nM, 2.5 nM and 1.25 nM of Fibrinogen; 750 nM, 375 nM, 188 nM and 94 nM of the BSA. (Ref: NB3, p 19-20, Aug. 29, 2017). 50 ul of aptamer conjugated to the latex beads were added to each well.
(§4) FIG. 10 represents an image of the wells section of a 96-well plate with the initial testing of coagulation.

Data set [5] addresses T2, D-dimer (cross-linked fibrin …). Description: latex bead agglutination; seen at lower concentration than with fibrinogen. The conditions noted are these: tags: none stated; about 180 kDa; chain copies: 2 of each chain (inferred). The method, then:
as §3, §4

Data set [6] has the same target. Put plainly: ELONA; estimated from saturation curve; text says 5' biotin, FIG. 6 legend says 3' biotin. The conditions noted are these: tags: none stated; about 180 kDa; chain copies: 2 of each chain (inferred); label: 5' biotin.
Data set [7] shares this target. Put plainly: ELONA; 25 nM. The conditions noted are these: tags: none stated; about 180 kDa; chain copies: 2 of each chain (inferred); label: biotin (5' or 3'). The method, then:
as §1, §2

T2 sequence (P02671 130-216, chain 1 of 3): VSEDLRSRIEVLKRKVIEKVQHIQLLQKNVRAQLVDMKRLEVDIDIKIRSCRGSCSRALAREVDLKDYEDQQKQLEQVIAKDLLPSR
T2 sequence (P02675 164-491, chain 2 of 3): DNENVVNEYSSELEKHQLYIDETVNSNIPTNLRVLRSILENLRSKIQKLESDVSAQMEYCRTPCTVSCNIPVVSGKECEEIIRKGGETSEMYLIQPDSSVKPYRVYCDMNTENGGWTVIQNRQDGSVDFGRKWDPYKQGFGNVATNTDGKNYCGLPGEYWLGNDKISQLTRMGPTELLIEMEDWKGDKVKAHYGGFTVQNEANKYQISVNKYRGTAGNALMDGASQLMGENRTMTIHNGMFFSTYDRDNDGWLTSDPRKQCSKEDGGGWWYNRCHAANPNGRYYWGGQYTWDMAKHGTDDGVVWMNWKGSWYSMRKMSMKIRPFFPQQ
T2 sequence (P02679 other isoform, or with tags, fused parts or gaps, chain 3 of 3): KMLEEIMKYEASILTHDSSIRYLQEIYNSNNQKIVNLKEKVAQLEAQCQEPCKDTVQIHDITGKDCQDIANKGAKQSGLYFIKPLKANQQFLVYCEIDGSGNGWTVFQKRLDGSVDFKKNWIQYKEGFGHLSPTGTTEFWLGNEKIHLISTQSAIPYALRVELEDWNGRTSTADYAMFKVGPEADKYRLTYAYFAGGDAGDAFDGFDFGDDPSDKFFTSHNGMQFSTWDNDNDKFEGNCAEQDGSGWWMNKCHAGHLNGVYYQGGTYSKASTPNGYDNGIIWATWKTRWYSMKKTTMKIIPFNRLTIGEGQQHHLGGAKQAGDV
T1 sequence (P02671 other isoform, or with tags, fused parts or gaps, chain 1 of 3): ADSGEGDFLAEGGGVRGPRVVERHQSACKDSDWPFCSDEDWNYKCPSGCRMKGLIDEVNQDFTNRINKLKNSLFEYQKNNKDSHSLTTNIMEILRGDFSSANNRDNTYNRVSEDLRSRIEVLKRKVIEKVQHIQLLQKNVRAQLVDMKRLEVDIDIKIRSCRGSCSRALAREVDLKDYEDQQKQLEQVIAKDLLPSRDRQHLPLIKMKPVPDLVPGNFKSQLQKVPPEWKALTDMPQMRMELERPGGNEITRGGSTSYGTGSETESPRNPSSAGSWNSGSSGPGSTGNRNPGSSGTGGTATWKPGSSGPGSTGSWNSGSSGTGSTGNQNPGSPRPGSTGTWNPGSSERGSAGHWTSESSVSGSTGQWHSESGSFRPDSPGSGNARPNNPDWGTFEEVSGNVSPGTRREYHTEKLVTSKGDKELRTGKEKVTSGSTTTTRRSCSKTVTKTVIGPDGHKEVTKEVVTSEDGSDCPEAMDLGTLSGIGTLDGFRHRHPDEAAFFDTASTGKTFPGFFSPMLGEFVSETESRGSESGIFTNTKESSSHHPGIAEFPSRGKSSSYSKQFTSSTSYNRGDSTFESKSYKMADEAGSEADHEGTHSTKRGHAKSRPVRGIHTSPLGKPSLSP
T1 sequence (P02675 31-491, chain 2 of 3): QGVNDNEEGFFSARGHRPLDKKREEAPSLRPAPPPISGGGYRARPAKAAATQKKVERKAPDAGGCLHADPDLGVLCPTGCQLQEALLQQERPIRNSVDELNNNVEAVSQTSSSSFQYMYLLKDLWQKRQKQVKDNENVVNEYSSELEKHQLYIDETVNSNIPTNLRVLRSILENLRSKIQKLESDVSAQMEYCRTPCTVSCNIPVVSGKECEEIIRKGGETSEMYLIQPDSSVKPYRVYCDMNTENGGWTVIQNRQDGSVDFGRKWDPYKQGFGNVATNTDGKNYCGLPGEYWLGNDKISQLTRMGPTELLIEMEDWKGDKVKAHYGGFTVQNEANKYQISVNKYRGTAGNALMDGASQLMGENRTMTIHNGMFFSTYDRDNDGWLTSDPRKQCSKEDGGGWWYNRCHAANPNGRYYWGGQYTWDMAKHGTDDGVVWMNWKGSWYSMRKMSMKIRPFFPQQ
T1 sequence (P02679 other isoform, or with tags, fused parts or gaps, chain 3 of 3): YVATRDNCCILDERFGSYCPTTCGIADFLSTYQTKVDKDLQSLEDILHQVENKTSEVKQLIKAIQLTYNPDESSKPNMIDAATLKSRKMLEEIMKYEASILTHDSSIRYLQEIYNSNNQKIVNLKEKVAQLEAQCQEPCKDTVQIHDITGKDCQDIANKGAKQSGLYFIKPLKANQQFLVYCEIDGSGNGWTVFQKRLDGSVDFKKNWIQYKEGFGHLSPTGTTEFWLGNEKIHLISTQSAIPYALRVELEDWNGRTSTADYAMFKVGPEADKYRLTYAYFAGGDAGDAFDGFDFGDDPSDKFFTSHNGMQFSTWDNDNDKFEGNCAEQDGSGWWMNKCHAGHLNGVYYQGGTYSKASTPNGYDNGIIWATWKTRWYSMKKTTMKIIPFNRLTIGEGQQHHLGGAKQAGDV
Bovine serum albumin, sequence (P02769 25-607, one chain of several): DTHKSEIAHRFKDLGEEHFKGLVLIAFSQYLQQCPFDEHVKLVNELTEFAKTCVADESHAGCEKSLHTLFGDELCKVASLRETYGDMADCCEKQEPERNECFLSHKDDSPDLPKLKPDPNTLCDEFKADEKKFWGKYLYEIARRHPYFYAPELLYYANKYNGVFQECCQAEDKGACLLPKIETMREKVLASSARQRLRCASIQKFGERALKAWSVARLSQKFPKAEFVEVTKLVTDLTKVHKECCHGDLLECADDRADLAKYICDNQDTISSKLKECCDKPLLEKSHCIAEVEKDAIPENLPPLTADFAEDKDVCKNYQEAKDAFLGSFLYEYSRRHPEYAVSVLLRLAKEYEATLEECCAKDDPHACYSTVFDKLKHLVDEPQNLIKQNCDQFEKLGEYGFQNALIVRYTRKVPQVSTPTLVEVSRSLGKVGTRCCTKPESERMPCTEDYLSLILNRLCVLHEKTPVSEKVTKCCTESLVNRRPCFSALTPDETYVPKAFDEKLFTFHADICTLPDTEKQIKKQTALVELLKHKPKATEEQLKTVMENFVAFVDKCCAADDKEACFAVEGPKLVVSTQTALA

On to GCGCGGTCCCGATTTGGTGTAAAATTCCCTCAGCCCTACA (ssDNA) [3'Biotin-ADI1701], for which the binding result in data set [1] is reported as “no binding”. Further, binding in data set [2] was characterised by a dissociation constant (Kd) of 2.5 nM.

Turning to GCGCGGTCCCGATTTGGTGTAAAATTCCCTCAGCCCTACA (ssDNA) [ADI1701], in data set [3], the binding result was “no binding”.

Take GCGCGGTCCCGATTTGGTGTAAAATTCCCTCAGCCCTACA (ssDNA, NH2-C6 linker, latex conjugate) [ADI1701-latex (NH2-C6-ADI1701 coupled to beads)]: the binding result in data set [4] was “no binding”; in data set [5], “binds”.

With GCGCGGTCCCGATTTGGTGTAAAATTCCCTCAGCCCTACA (ssDNA) [5'Biotin-ADI1701], the Kd in data set [6] is about 10 nM.

For TTGTTAGATACTCGCTCTCATCCGCCGTACAACTGGCCAG (ssDNA) [Scrambled Sequence 1], in data set [7], the binding result was “no binding”.

As for ACTACCGATGCGGACTTATCCGCACGTACCGCTATTGTAG (ssDNA) [Scrambled Sequence 2], the binding result in data set [7] was “no binding”.
